The results in this text go back to US20220331394A1 (SUSAVION BIOSCIENCES, published 2022).

Assay [1] has as its target T1, recombinant human asialoglycoprotein receptor 1 (ASGPR-1) (human, UniProt P07306 62-291).
T1 construct: extracellular domain; Bought recombinant receptor; also called Ashwell-Morell receptor; CLEC4H1
T1 sequence (looked up): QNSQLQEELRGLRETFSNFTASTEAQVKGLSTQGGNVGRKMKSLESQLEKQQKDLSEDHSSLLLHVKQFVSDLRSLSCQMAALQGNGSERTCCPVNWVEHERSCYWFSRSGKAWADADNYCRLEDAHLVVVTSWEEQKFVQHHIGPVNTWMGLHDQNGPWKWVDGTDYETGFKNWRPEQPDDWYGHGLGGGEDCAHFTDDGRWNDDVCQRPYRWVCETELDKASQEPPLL
Nature of the assay: solid-phase binding assay with recombinant human receptor. The method, then:
(§1) Binding Assays Solid-phase binding assays were performed with streptavidin-, protein A/G-, or Nickel-coated microtiter plates (Pierce). His-tagged or Fc-fusion recombinant receptors (R&D Systems, Minneapolis, Minn.) were reconstituted in PBS. Sufficient receptors were added to wells to saturate the coating. His-tagged receptors were added to each well at a 5-fold excess over the stated capacity of the Ni coating to minimize non-specific binding of the peptide. Wells were washed three times with binding buffer (25 mM Tris HCl, pH 7.4, 150 mM NaCl, 0.05% Tween-20) to remove unbound receptor and 50 μL of 2 μM biotinylated peptide in binding buffer were added and allowed to incubate for 1 h. The wells were washed four times with binding buffer and then incubated with 50 μL of 1 μg/mL streptavidin conjugated with peroxidase (Sigma-Aldrich) for 1 h. […] After several minutes to allow color development, the reaction was stopped with 50 μL 1 M H₃PO₄ and absorbance was measured at 450 nm. Bound streptavidin was quantitated by the specific activity of peroxidase (absorbance/ng protein conjugate/min) under the conditions of the assay.
(§2) Solid-phase binding assays were performed with recombinant human receptors. […] After extensive washing, the bound receptor was measured by peroxidase conjugated to a receptor-specific antibody. […]

Assay [2] has as its target T2, recombinant human Ca2+-dependent lectin-type receptor family member 10A (CLEC10A) (human, UniProt Q8IUN9 61-316).
T2 construct: extracellular domain; Bought recombinant receptor; also called CD301; macrophage galactose-type lectin
T2 sequence (looked up): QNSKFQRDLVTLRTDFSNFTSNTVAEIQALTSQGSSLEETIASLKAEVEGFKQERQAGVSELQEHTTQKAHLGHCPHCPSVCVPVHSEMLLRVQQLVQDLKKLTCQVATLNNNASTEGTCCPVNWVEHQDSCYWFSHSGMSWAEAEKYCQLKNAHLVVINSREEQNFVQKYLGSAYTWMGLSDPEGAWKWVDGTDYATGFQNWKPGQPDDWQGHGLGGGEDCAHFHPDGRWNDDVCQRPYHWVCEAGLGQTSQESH
The assay is described as above. The method, then:
as §1, §2

Assay [3] concerns the target T3, recombinant rat CLEC10A (rat, UniProt P49301 59-306, limits assumed).
T3 construct: construct not described; also called CLEC10A from rat
T3 sequence (looked up): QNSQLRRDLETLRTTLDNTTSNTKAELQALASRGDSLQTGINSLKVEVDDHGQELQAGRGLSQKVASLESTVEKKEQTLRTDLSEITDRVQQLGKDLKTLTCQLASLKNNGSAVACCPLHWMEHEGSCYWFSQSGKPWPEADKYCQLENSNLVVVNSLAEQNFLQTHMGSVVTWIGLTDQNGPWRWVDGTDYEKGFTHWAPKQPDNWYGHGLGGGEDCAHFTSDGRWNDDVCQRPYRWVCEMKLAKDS
Nature of the assay: solid-phase competition with biotinylated GalNAc-PAA. The method, then: FIGS. 3A-3D. sv6D as a mimetic of GalNAc. (FIG. 3A) Inhibition by sv6D of binding of multivalent GalNAc-PAA (GlycoTech Corp., Frederick, Md.) to recombinant rat CLEC10A and human ASGPR-1. The reaction mixture included approximately 200 pmoles of biotinylated GalNc-PAA and increasing concentrations of peptide. The figure includes average values from 3 independent experiments. (FIG. 3B) Biotinylated sv6D or GalNAc-PAA were incubated with rabbit antiserum raised against the 6D sequence (NQHTPR) conjugated to keyhole limpet hemocyanin (KLH). Binding was detected with streptavidin-peroxidase conjugate. Similar data were obtained in 2 experiments. (FIG. 3C) Inhibition by EGTA of binding of sv6D (pattern) or svL4 (solid) to CLEC10A and ASGPR-1, respectively. EGTA (1 mM) was added to the final concentrations indicated to assays. Retention of bound CLEC10A was determined by incubation with biotinylated anti-CLEC10A (goat IgG, R&D Systems) and detection with streptavidin-peroxidase conjugate (light grey circle). Similar data were obtained in 3 experiments. (FIG. 3D) Binding of svL4 and sv6D to human recombinant CLEC10A and ASGPR-1 as a function of concentration of peptide in the assay. The figure is representative of 4 separate assays.
To further determine whether sv6D interacts with the actual sugar binding site, the ability of sv6D to compete with GalNAc-PAA for binding was assayed. […]

For assay [4], the target named is T4, CD44 (human, UniProt P16070 21-220, limits assumed).
T4 construct: construct not described; also called receptor for hyaluronic acid
T4 sequence (P16070 21-220 limits assumed): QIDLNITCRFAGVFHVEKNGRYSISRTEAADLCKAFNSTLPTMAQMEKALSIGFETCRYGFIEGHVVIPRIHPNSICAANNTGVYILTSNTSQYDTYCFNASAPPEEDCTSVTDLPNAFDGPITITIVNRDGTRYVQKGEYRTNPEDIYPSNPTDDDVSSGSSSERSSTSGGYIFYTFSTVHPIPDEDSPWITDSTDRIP
Kind of assay: solid-phase binding assay with recombinant receptor. The method, then:
(§3) Binding Assays Solid-phase binding assays were performed with streptavidin-, protein A/G-, or Nickel-coated microtiter plates (Pierce). His-tagged or Fc-fusion recombinant receptors (R&D Systems, Minneapolis, Minn.) were reconstituted in PBS. Sufficient receptors were added to wells to saturate the coating. His-tagged receptors were added to each well at a 5-fold excess over the stated capacity of the Ni coating to minimize non-specific binding of the peptide. Wells were washed three times with binding buffer (25 mM Tris HCl, pH 7.4, 150 mM NaCl, 0.05% Tween-20) to remove unbound receptor and 50 μL of 2 μM biotinylated peptide in binding buffer were added and allowed to incubate for 1 h. The wells were washed four times with binding buffer and then incubated with 50 μL of 1 μg/mL streptavidin conjugated with peroxidase (Sigma-Aldrich) for 1 h. The wells were washed five times with binding buffer and 50 μL of peroxidase substrate (1-Step™ Ultra TMB, Pierce) were added. After several minutes to allow color development, the reaction was stopped with 50 μL 1 M H₃PO₄ and absorbance was measured at 450 nm. Bound streptavidin was quantitated by the specific activity of peroxidase (absorbance/ng protein conjugate/min) under the conditions of the assay.
(§4) Solid-phase binding assays were performed with recombinant human receptors. Three variations of the binding assay were used in this study, all of which allowed the arms of the tetravalent peptide to have full flexibility. (i) Biotinylated peptide was bound in microtiter wells coated with streptavidin and incubated with recombinant human receptors. After extensive washing, the bound receptor was measured by peroxidase conjugated to a receptor-specific antibody. (ii) The extracellular domains of receptors, which were fused with the Fc domain of immunoglobulin IgG, were bound in wells coated with protein A/G. Biotinylated peptide was incubated with the receptors and, after extensive washing, bound peptide was measured with streptavidin conjugated with peroxidase. Or (iii), recombinant receptors with a poly-His tag were bound to Nickel-coated wells and incubated with biotinylated peptide. svL4 and sv6D contain His residues (FIGS. 1A, 1C) and can bind to the Ni coating, which was minimized by adding sufficient poly-His-tagged receptor to saturate the Ni coating.

For assay [5], the target named is T5, IL-4R (human, UniProt P24394 26-232, limits assumed).
T5 construct: construct not described; also called receptor for IL-4
T5 sequence (looked up): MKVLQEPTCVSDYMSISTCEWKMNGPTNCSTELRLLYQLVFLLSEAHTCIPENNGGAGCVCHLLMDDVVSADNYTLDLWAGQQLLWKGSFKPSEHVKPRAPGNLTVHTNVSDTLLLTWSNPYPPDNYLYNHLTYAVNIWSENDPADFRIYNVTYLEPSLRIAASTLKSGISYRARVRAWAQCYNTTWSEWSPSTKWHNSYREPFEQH
Described as above. The method, then:
as §3, §4

In assay [6] the target is T6, CLEC9A (human, UniProt Q6UXN8 57-241).
T6 construct: construct not described
T6 sequence (Q6UXN8 57-241 limits assumed): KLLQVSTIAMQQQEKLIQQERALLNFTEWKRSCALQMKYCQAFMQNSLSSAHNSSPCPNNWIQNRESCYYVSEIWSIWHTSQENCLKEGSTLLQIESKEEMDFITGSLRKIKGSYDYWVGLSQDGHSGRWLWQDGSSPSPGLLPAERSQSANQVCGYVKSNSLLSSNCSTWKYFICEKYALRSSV
The assay is described as above. The method, then: as §3, §4

The target in assay [7] is T7, Siglec-1 (human, UniProt Q9BZZ2 20-1641, limits assumed).
T7 construct: construct not described
T7 sequence (Q9BZZ2 20-1641 limits assumed): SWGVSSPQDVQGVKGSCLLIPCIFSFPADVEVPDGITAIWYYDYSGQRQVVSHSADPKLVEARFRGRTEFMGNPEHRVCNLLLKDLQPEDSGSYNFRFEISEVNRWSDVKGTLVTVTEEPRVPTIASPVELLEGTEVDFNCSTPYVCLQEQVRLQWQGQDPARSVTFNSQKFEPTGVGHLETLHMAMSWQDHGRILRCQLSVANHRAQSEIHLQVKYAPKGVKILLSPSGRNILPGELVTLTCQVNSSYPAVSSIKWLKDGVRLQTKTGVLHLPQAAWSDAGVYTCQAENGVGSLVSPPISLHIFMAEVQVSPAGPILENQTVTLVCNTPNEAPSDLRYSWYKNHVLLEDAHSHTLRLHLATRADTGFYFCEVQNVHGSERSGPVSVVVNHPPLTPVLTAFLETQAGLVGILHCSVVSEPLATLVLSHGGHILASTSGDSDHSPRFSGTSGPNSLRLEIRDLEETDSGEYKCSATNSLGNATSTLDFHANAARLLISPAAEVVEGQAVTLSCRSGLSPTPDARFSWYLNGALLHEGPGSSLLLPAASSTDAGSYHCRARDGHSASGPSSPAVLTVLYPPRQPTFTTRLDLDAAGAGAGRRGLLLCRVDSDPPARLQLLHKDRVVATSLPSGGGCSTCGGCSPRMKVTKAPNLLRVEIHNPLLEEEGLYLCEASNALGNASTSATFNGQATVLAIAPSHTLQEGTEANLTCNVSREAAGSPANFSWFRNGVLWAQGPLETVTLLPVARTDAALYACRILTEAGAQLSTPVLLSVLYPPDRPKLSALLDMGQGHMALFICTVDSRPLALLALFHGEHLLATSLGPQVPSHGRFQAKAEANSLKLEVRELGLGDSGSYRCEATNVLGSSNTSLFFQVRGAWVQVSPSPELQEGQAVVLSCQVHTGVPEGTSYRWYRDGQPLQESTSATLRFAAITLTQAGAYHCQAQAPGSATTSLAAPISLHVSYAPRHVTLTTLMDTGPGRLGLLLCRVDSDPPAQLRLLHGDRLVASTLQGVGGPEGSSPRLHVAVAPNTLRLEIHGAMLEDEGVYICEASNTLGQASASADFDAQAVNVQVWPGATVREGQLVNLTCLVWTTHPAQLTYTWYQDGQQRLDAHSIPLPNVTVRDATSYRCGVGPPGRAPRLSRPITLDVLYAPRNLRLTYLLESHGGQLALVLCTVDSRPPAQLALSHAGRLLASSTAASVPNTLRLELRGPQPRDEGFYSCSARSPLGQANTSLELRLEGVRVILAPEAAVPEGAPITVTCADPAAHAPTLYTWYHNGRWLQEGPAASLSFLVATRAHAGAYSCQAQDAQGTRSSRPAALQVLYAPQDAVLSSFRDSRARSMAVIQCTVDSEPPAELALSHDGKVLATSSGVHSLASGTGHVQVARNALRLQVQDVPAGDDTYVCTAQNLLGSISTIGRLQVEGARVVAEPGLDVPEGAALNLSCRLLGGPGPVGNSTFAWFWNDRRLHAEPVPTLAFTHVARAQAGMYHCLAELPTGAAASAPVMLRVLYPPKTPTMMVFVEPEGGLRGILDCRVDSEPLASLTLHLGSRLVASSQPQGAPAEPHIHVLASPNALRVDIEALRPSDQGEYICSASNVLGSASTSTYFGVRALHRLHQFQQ
The description is as above. The method, then:
as §3, §4

Assay [8] has as its target T8, DC-SIGN (human, UniProt Q9NNX6 62-404, limits assumed).
T8 construct: construct not described; also called CD209; dendritic cell-specific intercellular adhesion molecule (ICAM)-3 grabbing non-integrin
T8 sequence (looked up): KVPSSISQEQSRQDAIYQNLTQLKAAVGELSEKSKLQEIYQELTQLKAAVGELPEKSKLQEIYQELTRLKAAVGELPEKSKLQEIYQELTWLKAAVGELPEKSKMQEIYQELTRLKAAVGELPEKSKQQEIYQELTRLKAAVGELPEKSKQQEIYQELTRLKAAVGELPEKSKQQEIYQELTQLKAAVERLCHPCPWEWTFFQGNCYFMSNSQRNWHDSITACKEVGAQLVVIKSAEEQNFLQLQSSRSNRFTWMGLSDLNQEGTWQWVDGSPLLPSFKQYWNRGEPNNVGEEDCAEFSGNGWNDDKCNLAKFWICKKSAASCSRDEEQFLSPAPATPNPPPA
The description is as above. The method, then:
as §3, §4

The target in assay [9] is T1, recombinant human asialoglycoprotein …. Nature of the assay: solid-phase binding assay, double-reciprocal plot of binding vs. peptide concentration. The method, then:
(§5) Binding was detected with streptavidin-peroxidase conjugate. Similar data were obtained in 2 experiments. (FIG. 3C) Inhibition by EGTA of binding of sv6D (pattern) or svL4 (solid) to CLEC10A and ASGPR-1, respectively. EGTA (1 mM) was added to the final concentrations indicated to assays. Retention of bound CLEC10A was determined by incubation with biotinylated anti-CLEC10A (goat IgG, R&D Systems) and detection with streptavidin-peroxidase conjugate (light grey circle). Similar data were obtained in 3 experiments. (FIG. 3D) Binding of svL4 and sv6D to human recombinant CLEC10A and ASGPR-1 as a function of concentration of peptide in the assay. The figure is representative of 4 separate assays.
as §3
(§6) Corresponding values for binding of svL4 to CLEC10A and ASGPR-1 of 0.24±0.04 μM and 0.21±0.03 μM, respectively, were obtained (FIG. 3D).

Assay [10] addresses T2, recombinant human Ca2+-dependent …. The description is as above. The method, then: as §5, §3, §6

No end group written: not given here.

B1: svC1 (peptide)
peptide: VQATQSGGGS
modifications: also: arms on branched tri-lysine core as for svL4, biotinylated at C-terminus of core in binding assays
notes: also called N-terminal half of svL4
B1: the binding result in assay [1] and in [2] was “no binding (tested: 2 µM biotinylated peptide)” each time.

B2: sv6D (peptide)
peptide: NQHTPRGGGS
modifications: also: tetravalent: four arms joined through GGGS linker to branched tri-lysine core, core C-terminus amide or biotinyl-lysinyl-amide
notes: Tetravalent branched construct: four arms NQHTPR + GGGS linker on a tri-lysine core; Biotinylated in solid-phase assays; also called tetravalent peptide sv6D; C-terminal half of svL4
In general, Kd refers to a measure of binding affinity in units of concentration. For B2, the binding result is “binds” in [3]; “no binding (tested: 2 µM biotinylated peptide)” in [4]; “no binding (tested: 2 µM biotinylated peptide)” in assay [5]; “no binding (tested: 2 µM biotinylated peptide)” in assay [6]; “no binding (tested: 2 µM biotinylated peptide)” in assay [7]; “no binding (tested: 2 µM biotinylated peptide)” in assay [8]. Also, the Kd in [9] turned out to be 120 nM; in assay [10], 150 nM.

B3: svL4 (peptide)
peptide: VQATQSNQHTPRGGGS
modifications: also: tetravalent: four arms joined through GGGS linker to branched tri-lysine core, core C-terminus amide or biotinyl-lysinyl-amide
notes: the tie follows from svL4 being the 12-mer whose C-terminal 6-mer is sv6D (NQHTPR); also called tetravalent peptide svL4; full-length svL4
Consider B3, for which the binding result in assay [4], in assay [5], in [6], in assay [7] and in [8] was “no binding (tested: 2 µM biotinylated peptide)” in each case. Besides, the Kd in assay [9] was 210 nM; in [10], 240 nM.
